Results on 22 sequences are retold here after a protein production outcome set (Wang et al. 2014).

A short description of the data set: label from the status in PepcDB records.
As to “MAFSAPEPELSVVVPTLNEAETVATLLAALAAQRDVALELLLCDGGSTDGTAALVRGRAGDLPFPVTVTETPPGRGRQMNAGAAAARGATFLFLHADSIIADPLALRRGLDHLAAARRSDKRAAGHFRLRFAGDSPSPLAYRFYERKARLHRPGCTHGDQGLLIPREFFDQVGPFDEGLPILEDVRLAERIAAMGTWVLLPAEIITSARRFETEGLRERQTLNAILMNFAAIGWQQGVEELVAGYRSQDRSGRLRLGPHLARIAGLTAALPRQERLRLWYLTGGYVRGNAWQIPLFLDVRNAWRRGGDDGATPLLSLHDRWFDLLTDNPAGRAAAALMTFLWFRLTLRREMKDWPGILRTPLEHHHHHH”, the protein production result is “failed”.

With “MAFRMSEQPRTIKIYNLLAGTNEFIGEGDAYIPPHTGLPANSTDIAPPDIPAGFVAVFNSDESSWHLVEDHRGKTVYDVASGDALFISELGPLPENVTWLSPEGEFQKWNGTAWVKDTEAEKLFRIREAEETKNNLMQVASEHIAPLQDAADLEIATEEEISLLEAWKKYRVLLNRVDTSTAQDIEWPALP”, the protein production entry is listed as “not failed”.

With “MSGQHRTRVGGVILAAGRSSRYESGNKLLATIDGKAVVRQVTETACKSSLSDAVAVLGHEKVAVAAALDGLSLSVQHNDEYATGQSASVRHGVEFARSAGWDAALFLLGDMPFVRVETIEELLEAYRTGTATVVVPEHEGRRGNPVLFDNCHFDSLASVSGDRGGRDIIETTEKTAFIEVSDPGVHWDIDTDADLAEFTDRRDSLLEHHHHHH”, the protein production result is “not failed”.

As for “SQGLDTLLRDLTDRAVVQVPGAVACSVTVRRADRLMTLAGSTGLPSGLDLRQYENGSGPCVDAAESGDAQYCADLAEETRWPAYTEYALATGVRCVLALPLPIEGETGAALNLYGLVPGSLVQGLDAARAFAERAADAVNEALRIERRQASAADVRTALLSRSVIDQAVGMLMARERI”, the protein production entry is reported as “not failed”.

As for “PDADPVEIENRIIELCHQFPHGITDQVIQNEMPHIEAQQRAVAINRLLSMGQLDLLRSNTGLLYRIKD”, the protein production result is reported as “not failed”.

Consider “MKGLERESHFTLNENAMFFECAYSCDNALFLQLDDRSFFITDSRYTQEAKESVQPKNGVLAEVVESSDLVQSAIDLIVKSSVKKLFFDPNQVNLQTYKRLNSALGDKVALEGVPSYHRQKRIIKNEHEIQLLKKSQALNVEAFENFAEYVKKIFDEKESLSERYLQHKVKDFLTREGVYDLSFEPILALNANASKPHALPSAKDFLKAEHSILLDMGIKYERYCSDRTRTAFFDPKDFVFKREQSFKDKERQKIYDIVKEAQEKAISGIRAGMTGKEADSLARGVISDYGYGQYFTHSTGHGIGLDIHELPYISSRSETILEEGMVFSVEPGIYIPGFFGVRIEDLVVIKNSRSELL”, for which the protein production entry is given as “failed”.

Consider “MAMGRTTQFTLDEVAKHADKDSCWLVIDGKVYAVEKFLNEHPGGEDVLLETAGRDATREFEDVGHSKSAREQLKEFYIGDVREPTAEELAAKRAVQASAAAERRDGDGVRANGLGKERLFAGGAFGAEPLSGGSSTWTLLKRLFVPVCIAVLVYLVREYSKQVQTGG”, for which the protein production entry is “not failed”.

As to “MVINLNDKQTKTSKEGLISVSHPLAAKIGKDVLDQGGNAMDAVIAIQLALNVVEPFASGIGGGGYLLYYEQSTGSITAFDARETAPEHVDKQFYLDDSGEYKSFFDMTTHGKTVAVPAIPKLFDYIHKRYAKLSLEDLINPAIELAIEGHAANWATEKYSRQQHARLTKYHETAQVFTHENQYWREGDWIVQPELGKTFQILREQGFNAFYKGDIAKQLVNVVKACGGTITLEDLAKYDIQIKAPISATFKDYDIYSMGPSSSGGITVIQILKLLEHVDLPSMGPRSVDYLHHLIQAMHLAYSDRAQYLADDNFHEVPVQSLIDDDYLKARSTLIDSNKANIDIEHGVVSDCISHTDVEENHTETTHFCVIDKEGNIASFTTSIGMIYGSGITIPGYGVLLNTTMDGFDVVDGGINEIAPYKRPLSNMAPTIVMYHGKPILTVGAPGAISIIASVAQTLINVLVFGMDIQQAIDEPRIYSSHPNRIEWEPQFSQSTILALIAHGHAMEHKPDAYIGDVHGLQVDPTTYEASGGSDDTREGTVMGGEVLVIRKQPLPYRQMYDSDGFRLYFNDVQLPLLADQVRWMHDKYWVDESVVRIIFPEVSAHIEDLRSYENAGENYIDIAWLARKYAYQVTLKDDGLYLTDDTYTSVKRNTNAYYRYDRDSITR”, the protein production entry is given as “failed”.

As for “METLSVGHKIKTLRQSLGLSQRDLAEGICTQALISHIEKNKTTPTVDVFFNIAKKLGAPADYFLETHDNSLDYILEVQYQIRKQVQEHNYEEALNIIKTERKNPIFNNSKYLQFLLWHEAICEYSLNKRYNEAVEAIEEALKLTHKEGNSYSEREIEILISLANFHDSEKKYDLSTKIYQDINDSLKALSYLSDRKIQLRFLFNYSLNRNNVKRYKEAIDLCNKGIILCKQHGFLYSFGEFHYQKGQNLIDLGRKKEALKFLEKAKMIFDIQDNELFANIADKEIKKLQKSLEMTVS”, the protein production result is “failed”.

As for “MNKVITDLDKALSALKDGDTILVGGFGLCGIPEYAIDYIYKKGIKDLIVVSNNCGVDDFGLGILLEKKQIKKIIASYVGENKIFESQMLNGEIEVVLTPQGTLAENLHAGGAGIPAYYTPTGVGTLIAQGKESREFNGKEYILERAITGDYGLIKAYKSDTLGNLVFRKTARNFNPLCAMAAKICVAEVEEIVPAGELDPDEIHLPGIYVQHIYKGEKFEKRIEKITTRSTK”, the protein production entry is on record as “failed”.

“MNAEHAVTLRAPAADWERSEREARQAAAYVAAFVGVPAVVAAAAALALFALTALVLLAPLVACVLTWAAWRYGRPERRGARRA”: the protein production result is given as “failed”.

For “MCVHTRKPDGLHPKPVSHCPVIDTGQSEWRSFTFTTICMGFRPRQAYRQPSPIANETENTMSNSNIQQEAQDIHDQLPESVDASPEDIEERLTTLVDDYRVPLDEAQRSVVSTYLSDSDVDRDDVSSENENQQVDLEEITEAEQWVDITAKVADLWEPRSDSIAQVGLLGDETGTIKFTKWAKSDLEALTEGQVYRLGNVVTDEYQGQYSVKLNRTTTIEALDQDIEVGDDTTDAEGALVDIQSGSGLIKRCPEDDCTRVLQNGRCSEHGEGEGEFDLRIKGVIDNGDTVQEVIFDKEATEQVADITLAQAQEMAMDALDTSVVADEIREVTLGRYYRVQGPELGRYLLVNEFEQLAEMHDPEQLLITARSILEHHHHHH”, the protein production entry was “not failed”.

As to “MASEHFDMWESRFSADGYLFGTAPNAFLASCHDLLPKQGRALAIADGEGRNGVFLAECGLSVLSVDFSPTAQAKAHKLAAERGVTIETRTADLLSWQWPGGFDVIAGIFFQFVEPEQRPQIFQQIRAALKPGALLLIEGYRPKQLAYKTGGPSRAENLYTRELLEQAFGDFDNLSIRERDSEIVEGAGHAGLSALIDLIGWKPKLEHHHHHH”, the protein production entry is “not failed”.

Turning to “MKSNDTSFRRYLCSASPRLRPALLAMLTVVLLAGCATADKHGLSPQQRSASDLADSEEIDPAARERISHALGRDADEGALRDALKQQPNNIDAAIPLARALLARNCPNDALEVLDGVLLATPGDLRALNAKAVVLDHEGRHQEAQELYRQALAAEPANPMLRNNFGLSLALQGKMDAGDASAAPQAGSRKALARSR”, the protein production result is “failed”.

On to “MRLDLSAKFRQVLGLAKDHASIGRAIVQNYNEKAFFDIEVAVVRATSHDDCPVDDKTMHEILFLVSNTPGSIPFLAEQISRRLAKTRDCLVAGKTLLLFHRLLRGSSRSIEQQLHIAHTSGHLQIGCSWFMMSLDSRSFVFLQNYVAYLQERVGWIINQAGKLEPVMSGGTKFSRYKEKSMDLVFHILPKCQEFIAQVLKCSPVDAWPIDNLVQAATGNILKESFQVYMTYSDGMTALVSMLFDLSRPARDLACGMLRKASQQIQDLRILYDKCRGFAGMKSLDYPSVQAISMDHIVALEECSSYGGKRGFSLSTNLRDAITCNELKQEQHSASFSSTSPFSLPVETKISMVWVVFDNEDGEESDKQTEKAYER”, for which the protein production result is listed as “failed”.

On to “MWLLCDCLLCFPLSPEEFLTEILDLLELVFVILVVCEWKPKRFAGEFRLLMEQRVQLRVGTMETISNEGDVDREQVLETFGIENETGKETNGSRSFDVGYSSGDTLETLPKASKVDISPADVLKTLFFILVWYTFSTFLTLYNKTLLGDDLGKFPAPLLMNTIHFSIQAVLSKMITWYWSGRFQPDVTISWRDYFVRVVPTALGTAMDINLSNESLVFISVTFATMVSYFIYYVQICSPNISSSVCFCLQSPSLKLFGIISVISAGVLLTVAKETEFEFWGFVFVMLAAVMSGLKNPFIFMSCVAPVMAIATGLLSLLLDPWSEFRDNKYFDSGAHFARTCFLMLFGGALAFCMVLTEYVLVSVTSAVTVTIAGVVKEAVTIVVAVFYFHDEFTWLKGVGLMIIMVGVSLFNWYKYDKLQKGHKTEEEKQLQAPSQTGKYVILDEMDDQENSP”, for which the protein production result is on record as “failed”.

Regarding “MGDASINIDKETVANYFVIKQGGPINRDHWTVTANTEEKTGEVSAAYPHNGQTISLIDGEINTFWHSKWQGGEVAPPYEIILDMGKENSVSQLGLIARQNALTSMNLEIYAGDDGETWNLIGKYFFDGSIKTEQMVPVKACDARWIRIYIPTLGSGSSVGHLAEIYVYGTDKLEHHHHHH”, the protein production result was “not failed”.

“MLIPHDLLEADTLNNLLEDFVTREGTDNGDETPLDVRVERARHALRRGEAVILFDPESQQCQLMLRSEVPAELLRD”: the protein production entry is “not failed”.

As for “MEESSAAKIQLLKEFKFEKILKDDTKSKIITLYGKIRNEVALLLLEKTAFDLNTIKLDQLATFLQDTKLVENNDVFHWFLSTNFQDCSTLPSVKSTLIWPASETHVYKYSSQKKPMVCETPLMYLKVTKPFIETQRGPQIQWVENILTHKAEAERIVVEDPDPLNGFIVIPDLKWDRQTMSALNLMAIVHATDIASIRDLKYKHIPLLENIRNKVLTEVPKQFSVDKNQLKMFVHYLPSYYHLHVHILHVDHETGDGSAVGRAILLDDVIDRLRNSPDGLENVNITFNIGEQHFLFQPLTNMNA”, the protein production entry is reported as “not failed”.

Take “MPAETNEYLSRFVEYMTGERKSRYTIKEYRFLVDQFLSFMNKKPDEITPMDIERYKNFLAVKKR”: the protein production result was “failed”.

As for “MKKNNAISNFYRILSIVLEIFIVAFSIYLAYMVRFRFRIIPPKFNYAPFERSLPFTIIVYMVFMYIFGLVDILKKSLWEIVYSIFLTVIMLFVFTMAITFSLRGFSYPRLVILLSSVFQFFLLSIFKCLWWKLERKIYGTKNTVIIGQNGESIAKKILLKHDDLYSISSIIKNYTEDKKSIVEKADIVLISDDLDENTKSTIIKESMYMNKNIFIVPSVTDIAFYKANFEQIDDVPILKVDTLELSAEQKTVKRLLDIVVAIIATVVFSPFLIILPIIIKCTDGGSPFYFQERVTNGGKKFKLIKFRSMIVNAEKHSGPVLVTENDSRITKIGKIMRATRLDEIPQLFNILKGDMSIVGPRPERPFYVEKFEKEIPDYKYRTFVKAGLTGLAQVLGKYNTTPEDKIKYDIMYIKNYSILLDIKLIIQTVKIMFMKESTEAVKDDVELEEILKKKNIKIKIY”, the protein production result is “failed”.

In the case of “RGSRFTWRKECLAVMESYFNENQYPDEAKREEIANACNAVIQKPGKKLSDLERVTSLKVYNWFANRRKEIKRRANIAAILES”, the protein production entry was “not failed”.
